Consider 2 substances from paper PMC4086270.

The target in assay [1] is endogenous SET (mouse (endogenous in adult mouse brain slices)) (UniProt Q9EQU5). The experiment in a line: co-IP; lysates of adult mouse brain slices incubated 5 h 30 min with or without recombinant SET (4 μM); IP with polyclonal anti-SET (recognises endogenous and recombinant SET) and protein A Sepharose, overnight 4°C; Hepes 10 mM, NaCl 150 mM, CaCl2 2 mM, Triton X-100 1% pH 7.4; blot for total PP2A C subunit, then methyl-PP2A after stripping.
Sequence of UniProt Q9EQU5 (Q9EQU5 whole entry): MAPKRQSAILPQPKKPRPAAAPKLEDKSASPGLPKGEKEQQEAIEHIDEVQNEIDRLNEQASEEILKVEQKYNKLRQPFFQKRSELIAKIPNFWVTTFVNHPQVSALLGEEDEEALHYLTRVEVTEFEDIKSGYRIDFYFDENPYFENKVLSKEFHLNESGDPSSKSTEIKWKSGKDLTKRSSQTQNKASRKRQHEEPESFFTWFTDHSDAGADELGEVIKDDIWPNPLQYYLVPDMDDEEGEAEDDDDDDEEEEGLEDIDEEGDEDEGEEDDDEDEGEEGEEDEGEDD

Assay [2] deals with PP2A (total PP2A, detected with an anti-PP2A C subunit antibody) (mouse (endogenous in adult mouse brain slices)) (UniProt P63330).
Sequence of UniProt P63330 (P63330 whole entry): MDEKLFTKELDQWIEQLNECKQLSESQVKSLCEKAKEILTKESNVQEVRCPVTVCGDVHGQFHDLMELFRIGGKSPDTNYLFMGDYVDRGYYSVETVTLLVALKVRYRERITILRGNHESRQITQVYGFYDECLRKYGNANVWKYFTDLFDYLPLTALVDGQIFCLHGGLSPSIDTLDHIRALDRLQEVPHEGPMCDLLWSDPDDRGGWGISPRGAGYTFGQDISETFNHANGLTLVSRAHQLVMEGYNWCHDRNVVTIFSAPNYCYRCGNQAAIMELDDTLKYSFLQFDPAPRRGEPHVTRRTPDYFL
The target is the same in assay [3]. The source holds these as a separate data set.

With “methylated PP2A (from UniProt P63330 1-309) (enzyme)”, in assay [1], the ratio of methyl-PP2A to total PP2A co-immunoprecipitated with SET came out at 2.18. With “recombinant HA-tagged SET protein fused to the Penetratin vector (from UniProt Q01105 1-290) (natural protein)”, in assay [2], the PP2A activity (release of p-nitrophenol) on PP2A immunoprecipitated from brain slices containing internalized recombinant SET, percent of control was 84 % of control. Besides, in assay [3], the ratio of methyl-PP2A to total PP2A by western blotting of brain slice lysates after 5 h 30 min of recombinant SET internalization, percent of the control ratio (% of control ratio) was 83.6.
